Data published in patent publication EP4667489A1.

Biological target: human PDL1 expressed on 293T-PDL1 cells (human) (UniProt Q9NZQ7)
Test: flow cytometry on 293T-PDL1 cells

Sequence of human PDL1 expressed on 293T-PDL1 cells (human) (Q9NZQ7 19-290): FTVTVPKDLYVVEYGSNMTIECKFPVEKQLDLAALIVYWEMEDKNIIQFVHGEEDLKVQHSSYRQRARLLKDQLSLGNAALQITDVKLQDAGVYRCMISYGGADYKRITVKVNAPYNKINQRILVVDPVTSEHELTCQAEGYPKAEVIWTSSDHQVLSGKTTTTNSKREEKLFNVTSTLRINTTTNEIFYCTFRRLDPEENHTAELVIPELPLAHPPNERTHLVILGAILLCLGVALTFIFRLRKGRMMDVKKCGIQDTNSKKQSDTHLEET

MFI.Max: 44.1
Substance: IgG1 irrelevant antibody
